Data from patent US9023987B2, “Cell-permeable peptide” (Seoul National University R&DB Foundation, priority 2010, dated 2015).

What was measured:
Smurf1 = target: T1, Smurf1 (Homo sapiens, UniProt Q9HCE7); experiment: Immuno-precipitation and western blot of Smad1/5/8 ubiquitination in hMSC; assay type: cell-based; conditions: hMSC pre-treated with MG132, 10 mM peptide, 1 hour 30 minutes; compared with MG132 only; FIG. 2B
T1 construct: endogenous in cells; host or cells: human mesenchymal stem cells (hMSC)
T1 sequence (Q9HCE7 whole entry): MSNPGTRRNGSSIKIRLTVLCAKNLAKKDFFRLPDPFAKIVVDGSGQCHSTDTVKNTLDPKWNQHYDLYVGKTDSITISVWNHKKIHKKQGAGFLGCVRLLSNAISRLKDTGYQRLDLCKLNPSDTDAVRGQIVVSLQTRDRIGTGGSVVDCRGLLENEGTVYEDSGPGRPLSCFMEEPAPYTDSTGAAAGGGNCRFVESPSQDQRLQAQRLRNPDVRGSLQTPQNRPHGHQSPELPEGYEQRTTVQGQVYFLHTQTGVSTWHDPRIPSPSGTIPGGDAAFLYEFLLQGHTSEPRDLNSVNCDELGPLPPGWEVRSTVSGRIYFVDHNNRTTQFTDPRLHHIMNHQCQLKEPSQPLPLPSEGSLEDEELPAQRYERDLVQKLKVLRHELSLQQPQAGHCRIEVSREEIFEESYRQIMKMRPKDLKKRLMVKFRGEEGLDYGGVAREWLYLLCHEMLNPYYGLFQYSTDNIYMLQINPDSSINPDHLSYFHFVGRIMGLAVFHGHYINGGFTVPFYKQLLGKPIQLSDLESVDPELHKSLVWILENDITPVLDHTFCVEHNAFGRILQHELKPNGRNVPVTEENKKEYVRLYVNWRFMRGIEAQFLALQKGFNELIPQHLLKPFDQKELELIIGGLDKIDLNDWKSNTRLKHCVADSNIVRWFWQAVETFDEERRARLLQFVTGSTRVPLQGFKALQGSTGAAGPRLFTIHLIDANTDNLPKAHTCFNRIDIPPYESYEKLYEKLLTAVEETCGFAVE
Source text: In order to confirm presence or absence of the active site of the cell permeable peptide-bone differentiation inducing sequence conjugate synthesized by the method in Example 1 for binding to Smurf1, an immuno-precipitation method and a western blot assay method were used. The present experimental method is applied in order to confirm that the cell permeable peptide-bone differentiation inducing sequence conjugate synthesized by the method in Example 1 may suppress a bioactivity of Smurf1 decomposing Smd1/5/8 as one of the E3 ligases playing a role in ubiquitin ligation.
1×10^6 human mesenchymal stem cells (hMSC) used as a model cell in the present experiment were plated in each dish and then cultured in a general medium for 20 hours (overnight incubation). Then the cells was cultured in an hMSC basal medium (MSCBM™, LONZA, USA) containing 0.5% fetal bovine serum (FBS, GIBCO, USA) for 20 hours (overnight starvation). After overnight starvation in 0.5% MSCBM™, […] MG132 (MG132; proteasome inhibitor, Merck, USA) was added to the same medium to allow the cells to be pre-treated for 2 hours. Thereafter, the cell permeable peptide-bone differentiation inducing sequence conjugate synthesized by the method in Example 1 and peptides of Comparative Examples 1 and 2 were injected into each dish at a concentration of […], respectively, and cultured for 1 hour 30 minutes. […]

ALP, OCN, and RUNX2 = experiment: Bone differentiation marker genes by quantitative real-time PCR and electrophoresis; assay type: cell-based, human; conditions: EtBr agarose gel, compared with PBS; FIG. 4C
Experimental: In order to confirm cell differentiation ability of the cell permeable peptide-bone differentiation inducing sequence conjugate through bone tissue differentiation marker genes, human mesenchymal stem cells (hMSC) were seeded in each well of a 6 cm-dish at 1×10^5/well, and then incubated in a general medium for 20 hours (overnight) for cell stabilization. After 20 hours of incubation, the cells were treated with the cell permeable peptide-bone differentiation inducing sequence conjugate and 10 μm of the bone differentiation inducing sequence of Comparative Example 2 for 72 hours.
After that, the entire RNA was separated from the treated cells, using a Trizol® reagent (reagent for isolating RNA from cell and tissue samples) (Invitrogen Life Technologies, USA), according to the manufacturer's instructions, and the amount and purity of the entire RNA were measured by the spectrophotometer. […]
In order to carry out the quantitative real-time PCR, cDNA to be used as a template and primers were mixed, like in RT-PCR, and then 10 μl of SYBR® Green Premix Ex Taq (TaKaRa, JAPAN) was mixed therewith to prepare a reaction material. […] The CT value of each gene was […] the CT value for housekeeping GAPDH gene and the value calculated based on the negative control was taken, so that comparison in the degree of mRNA expression was conducted (Shin et al., (2007) Plant J. 49, 981-994).

## NH2-GAPPPADSAP-SSRKKNPNCRRH-C-COONH2 (H-GAPPPADSAPSSRKKNPNCRRHC-NH2; cysteine pairing not given here) [Example 1]
Smurf1
  ubiquitination of Smad1/5/8 (ubiquitin antibody after Smad1/5/8 immuno-precipitation): ubiquitination of Smad1/5/8 was suppressed
ALP, OCN, and RUNX2
  bands of ALP, OCN, and RUNX2 PCR products (electrophoresis): noticeably increased bands
